Source: patent US20260274981A1 (VIB VZW, published 2026)

How the values were obtained:
[1] = molecular target: T1, human TfR overexpressed on CHO cells (human, UniProt P02786 1-760); test: flow cytometry, second of two columns 'Binding to human TfR1 EC50 (M)' (first column: ND); paragraph 156 calls it the capacity to compete for binding on human TfR1, competitor not named
T1 construct: construct is TfR followed by an HA tag and IRES-GFP; also called hTfR; human transferrin receptor

[2] = molecular target: T2, cynomolgus TfR overexpressed on CHO cells (cynomolgus monkey, UniProt Q5RDH6 1-760 (Pongo abelii entry)); test: flow cytometry, second of two columns 'Binding to cyno TfR1 EC50 (M)' (first column: ND); paragraph 156 calls it the capacity to compete for binding on cynomolgus monkey TfR1, competitor not named
T2 construct: construct is TfR followed by an HA tag and IRES-GFP; also called cynomolgus monkey TfR1; NHP TfR
T2 chain: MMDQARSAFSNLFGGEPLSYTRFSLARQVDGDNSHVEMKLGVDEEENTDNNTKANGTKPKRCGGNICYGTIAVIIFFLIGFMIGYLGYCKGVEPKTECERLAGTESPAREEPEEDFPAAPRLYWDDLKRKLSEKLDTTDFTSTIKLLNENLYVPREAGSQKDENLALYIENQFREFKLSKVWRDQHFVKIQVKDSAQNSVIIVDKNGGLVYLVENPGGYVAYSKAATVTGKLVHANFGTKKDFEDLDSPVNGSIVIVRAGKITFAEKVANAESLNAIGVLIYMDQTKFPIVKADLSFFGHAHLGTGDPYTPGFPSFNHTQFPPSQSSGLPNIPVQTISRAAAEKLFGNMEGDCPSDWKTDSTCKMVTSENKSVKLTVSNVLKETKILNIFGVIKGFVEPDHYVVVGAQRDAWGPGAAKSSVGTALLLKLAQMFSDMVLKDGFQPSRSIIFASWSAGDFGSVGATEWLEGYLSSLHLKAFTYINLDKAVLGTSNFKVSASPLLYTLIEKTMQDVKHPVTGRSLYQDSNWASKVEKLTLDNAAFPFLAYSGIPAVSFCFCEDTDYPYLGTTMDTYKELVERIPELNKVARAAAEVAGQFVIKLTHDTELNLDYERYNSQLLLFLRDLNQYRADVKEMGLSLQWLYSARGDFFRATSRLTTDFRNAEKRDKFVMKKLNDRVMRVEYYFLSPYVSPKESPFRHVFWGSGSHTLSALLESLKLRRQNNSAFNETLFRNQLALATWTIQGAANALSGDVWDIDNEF

[3] = molecular target: T1, human TfR overexpressed on CHO cells; test: flow cytometry, first of two columns 'Binding to human TfR1 EC50 (M)' (second column: ND); paragraph 156 calls it the capacity to compete for binding on human TfR1, competitor not named
[4] = molecular target: T2, cynomolgus TfR overexpressed on CHO …; test: flow cytometry, first of two columns 'Binding to cyno TfR1 EC50 (M)' (second column: ND); paragraph 156 calls it the capacity to compete for binding on cynomolgus monkey TfR1, competitor not named

| Binder | EC50 [1] [nM] | EC50 [2] [nM] | EC50 [3] [nM] | EC50 [4] [nM] |
| --- | --- | --- | --- | --- |
| BBB00533_h10 (VHH, The sheet prints R72K and D82N (IMGT) against BBB00533_h01) VHH: EVQLVESGGGLVQPGGSLRLSCTASGRTFNYAMGWFRQAPGKNREFVATIDWKDGSSYYLDSVKGRFTISRDNAKNTVYLQMNSLRPEDTAVYYCAVGDGDYCSTYTCAAEVEYDYWGQGTLVTVSS | 110 | 14 |  |  |
| BBB00533_h13 (VHH) VHH: EVQLVESGGGLVQPGGSLRLSCTASGRTFNYAMGWFRQAPGKNREFVATIDWKDGSSYYADSVKGRFTISRDDAKNTVYLQMNSLRPEDTAVYYCAVGQGDYCSTYTCAAEVEYDYWGQGTLVTVSS |  |  | 560 | 240 |
| BBB00533_h17 (VHH) VHH: EVQLVESGGGLVQPGGSLRLSCTASGRTFNYAMGWFRQAPGKNREFVATIDWKQGSSYYADSVKGRFTISRDDAKNTVYLQMNSLRPEDTAVYYCAVGEGDYCSTYTCAAEVEYDYWGQGTLVTVSS |  |  | 290 | 120 |
